What follows are substances tested against Lamb brain tubulin (lamb).
“Tat Oyi peptide 73-101 (from UniProt P20893 73-101)” was tested, and the ΔOD 350 nm plateau of 15 μM tubulin at 37°C with 8 μM compound (same level as the control: not active in tubulin polymerization) was 0.31 ΔOD 350 nm and the ΔOD ratio (plateau with 8 μM compound divided by plateau of tubulin alone) was 1.01.
For “HIV-1 Tat protein, Eli strain (natural protein)”, the ΔOD 350 nm plateau of 15 μM tubulin at 37°C with 8 μM compound was 1.61 ΔOD 350 nm and the ΔOD ratio (plateau with 8 μM compound divided by plateau of tubulin alone) was 5.27.
With Tat Eli peptide 38-72 the ΔOD 350 nm plateau of 15 μM tubulin at 37°C with 8 μM compound was 1.59 ΔOD 350 nm and the ΔOD ratio (plateau with 8 μM compound divided by plateau of tubulin alone) was 5.2.
With Tat Eli peptide 73-99 the ΔOD 350 nm plateau of 15 μM tubulin at 37°C with 8 μM compound (same level as the control: not active in tubulin polymerization) was 0.3 ΔOD 350 nm and the ΔOD ratio (plateau with 8 μM compound divided by plateau of tubulin alone) was 1.
“Tat Oyi peptide 38-72 (from UniProt P20893 38-72)” was tested, and the ΔOD 350 nm plateau of 15 μM tubulin at 37°C with 8 μM compound was 0.78 ΔOD 350 nm and the ΔOD ratio (plateau with 8 μM compound divided by plateau of tubulin alone) was 2.56.

— paper PMC549075
